Data on 15 sequences can be found in the DeepSol protein solubility set.

The nature of this series: soluble on expression in E. coli; label from the status in PepcDB or PDB records.
As to “MGSDKIHHHHHHMKIIQLEYFLAIVKYNSFTKAAQFLHISQPSLTATIKKMEADLGYDLFTRSTKDIKITEKGIQFYRYASELVQQYRSTMEKMYDLSVTSEPRIKIGTLESTNQWIANLIRKHHSDYPEQQYRLYEIHDKHQSIEQSLNFNIHLAITNEKITHEDIRSIPLYEESYILLAPKETFKNQNWVDVENLPLILPNKNSQVRKHLDDYFNRRNIRPNVVVETDRFESAVGFVHLGLGYAIIPRFYYQSFHTSNLEYKKIRPNLGRKIYINYHKKRKHSEQVHTFVQQCQDYLYGLLEAL”, the “soluble on expression in E. coli” value is “not soluble”.

On to “MSLGEPAQPGAKKYVLFDVDGTLIDAVDNQRRVWRVWAERYGLDPGEVYQVALRTRPMETFAQVAPDRDPQECLAALHELEDEDVRSGVYAAFDGASELLDALPPESWALVTSNYEHRVRGRFARTGLPVPSIIVDAASVEEGKPSPVPYLLAAKRLGADPQDCLVIEDAPSGVRSALRAGMTVWGVNAPVAVDGVHRHFGSLREAIRDILAVTSGTRPHEPRGSAAVEGHHHHHH”, for which the “soluble on expression in E. coli” value was “soluble”.

As to “MVERKRWSEEFSEWFNEVIEEAGILDKRYPVKGMNVWLPYGLKIMRNIEKFIHEEMERTGHQEVLFPALIPETEFKKEAEHIAGFEGEVFWVTHAGHEPLDVRLVLRPTSETAMYSMFALWIRSHADLPFKVYQIVNVYRYETKHTRPLIRVREISRFFEAHTAHADFEDAERQIKEDLEIFDNLMRKLALAYIISKRPEWDKFPGAFYSLGAEVVMPDGRTLQIGTMHNYKQNFSKAYNILYEKEDGTHDYVHQTTFGMSERLLAAVIAIHGDDRGMVLPPTIAPIQVVIVPIPKKGSEEEVYSYAKGIEEELRDAGIRVYLDLRDKRPGWKFYDWELKGVPVRVEVGPIDVQNSTVVLARRDKLEKITVKREELVDKVRELFEDIMEFLYERANEWLESHIKRVDTLEEAKAVFEDRRGIVEIPWCGEESCGLKMEEELEAKMLGIPYPEEKAKAPEGSKCPVCGREAKFIARFARTY”, the “soluble on expression in E. coli” value is reported as “soluble”.

Consider “HDAIFILDKQGRLTWINQSYSALSGNTLEDIEGKDLPSILQLDKIKHANIIILLQSLETGTSISFELTNHHKDGTLFWIDVSITPILEPN”, for which the “soluble on expression in E. coli” value is recorded as “not soluble”.

Regarding “MGSDKIHHHHHHMQGSAMLVHPQYDSNCPKTSVEVSEGFGGWFARICEDDQETFHQFRRERDAIAFADTQRMRLGLPCPPLERTASSGHKAIRKINQIADVLRTRGLGRFLQLSTLSLSEPIRSQRLRYRVASDARQALSKIKAASRHRGLFIDCGSNIGQAYKFFSRYYTPDYYDYVLVEPNKNCLEHLHSLRSENVAIEVVAKAASVKDGYAEFLGPPGRSDLTYEGCSIVPSHNGGLYPSQRFTPELVETFSLSQMIQAKRGLYEVIVLKLDVEGAEYEILDDLIRSGLHRDLHATYVEFHSLYMRNSEGRKTAVVERKIVDEFQQAGTHISRWI”, the “soluble on expression in E. coli” value is recorded as “not soluble”.

Take “MGSDKIHHHHHHMESQNVSFRVAREDLVTAVAWVARNLPTKPTQPVLRAMLITADDEGLELAGYDYDVSTRVRLSAEVSQPGRIAVAGKLLSEITGSLPNKPVDFRIDGSKAFVTCGSSRFELPLIPLDDYPMLPKLPAGTGSINAKLFTEAVSQVASAAGKDDSLPMLTGVSMEIVGNQINLAATDRFRLALRTFEWEANDPELNVKLLIPARTLLDNARSLDSGLNDSIDIAVGTGDQVGREGLFGVHTDNRETTTRLLDADFPNIAPLLPKEHTAIASVEIAPLVDAIRRVSLVAERNAQIVLHFSEGQVILTAGATEAGHAEETLPCAFTGKELTIAFNPGYLKDGLSVVPTSRAVFGFTEPSRPAIMIPEPEEMPSANENGIFQTPDTYFTYLLMPVRLPG”: the “soluble on expression in E. coli” value was “not soluble”.

Take “MGHRSRSNSRSQSRSRENSRGRSRSASKSPVYHRRERESSRSRSPRARYGGGGGGGGGGGRGRNQQYDRENPQPSKCLGVFNLSSYTTEKDLRDVFGEFGEINKCDLVYDRPSGNSRGFGFIYFNLIEDATAARDKLCNTDLDGHKIRVDFSLTKRGHSPTPGQYMGDRRGGGSSGGGRFGGGGGDRFNDRGSRGGDRYGGDRRGGGGGGGGDRYGGGGGDRYGGDRYGGGGGRRGSPDRRGGFRSGGGGGGYMRSGGGGGGPDRRDHRDNDRNGGGGGHRPYDPSFRRRVESYGSGNSGGGGGRRDRY”: the “soluble on expression in E. coli” value was “not soluble”.

As for “MQDKYGVNHDHYCYESSDVLINLLNIRDPDELTQAEADFNLIRYSEYCSDLDELEDFDSNHFLNLHWVLFQDIYEWAGTIRDVDISKANTRFCTCSRVEPELNKAISRIPLIRFCRNKHELVALVADIFSDLNVVHPFREGNGRTTRFFFEELLHVAGYRIEWPVITKEEWVDANIHGYFGQLHKLEVIFDAAIIESLEHHHHHH”, the “soluble on expression in E. coli” value is given as “not soluble”.

For the sequence “MSLEFLMKKVVFALSALAVVSTSAFAAESGDGTIKFTGEIVDAPCVVSTDSQNQEVVLGQVKKNIFKAIGDKSSSKPFQIKLEDCDITSNTKVNVSFNGVGDTDDATLVSVNTEAGAATGVGIGIYDNANKLVEMNTGKSTTTLAAGQTVLYYTANYVATKDTVTTGYGNAEVDFNLSYEEGGSHHHHHH”, the “soluble on expression in E. coli” value was “soluble”.

In the case of “MAQTNLSFNPSPRYKSKKGWYKDTPPKEKGGMPTEVEIAGPIVIENKFIDPKTNTEKLIITDEDQKEIVESSDILTTQKLPSLMKYGFSINEKYTKDLGYALQQMRNQLPISYLYEGVGILETPFGPIVSLSEIYTTKEFDNKSPSDAICDNAYDLTPKGTFDNWFNMYLKEVKGSLLLELAVVFGISALVTSFLKHKHETEFAGIIFSFTGQSSTGKSTAASLAVSVAGNPTKGNETLFRNWNATRNALEGYLSNNFGIPIVFDELSSATFRDTTGLLYSITEGQGRQRSNVHGEVKTPKNWGTSVISTSEHSIFNDSAQNDGLRVRTIEINEQFTTNATNADNIKKAVALNYGHVLPLVAKYLINREDEVIQWFYKEVDWFEAKLKDDKSNTGNRMFKRYAVITTSAKILGRVLATDIDIAKIRDYFIDYHGHTISERSLADKAIDVIIQFVAQNRGKFSDEGALKNMFENYGLISLKDDHIEVKMIANVFKQMLNNHQFQDVNNVVNALRDKGFILADRGRQTTKRSVKDNSGKKQSLVFYHLKLDVEFASILGLTKDKSLIQNWTPANDNKAAKELFKSANEGIGPSGVHEDFLEHHHHHH”, the “soluble on expression in E. coli” value is listed as “not soluble”.

For the sequence “MQLNETAVGEKVRISELKIENAMLKRRLLALGCDEGCDICIKQKGLFGGPCTFETKGQYISIRQCDACAIMVERRLEHHHHHH”, the “soluble on expression in E. coli” value is “not soluble”.

In the case of “MGSDKIHHHHHHMHFFIRIKEKYIECIRGNINDMQTADYSMVSEIIGNPQRLGMLVFLMDGRFRTVNEVTKATNLKPNTVSLYLSHFEKISWLDDYFQGRWHYYRLANSEVASLIEKILVLSPKKKITYFNLNEEEKLLHTGRSCYNHLAGQLGVQLLCSMKTLNWIRQDGSAFQLTDKGQSNLNNALEIKFSFQEQKSWDFILPCMDWSERQLHLKGIVGKKILGAMLDKEWLYRPNRTRALALTYKGKEKFGDFLQIRA”, the “soluble on expression in E. coli” value is “not soluble”.

Turning to “MGSDKIHHHHHHMLNDRARILLKTLVERYISEGEPVGSRTLSKHAGLDLSPASIRNIMSDLEEMGFVASPHTSAGRVPTPRGYRFFVDTLLTVRPLDQVSVNHLENSLAASDPQRLMTAASTLLSDLSQFAGLVMTPRRNPAFRQIEFLTLSDKRVLLIIVTMEGEVENRVIVTEQSYSAAALTEAANYFNQNFAGHSFDHVRSKLRDELGRMRDDITRLMAAAVDAGTQALDASQDNVVVSGSRKLLDVEELSSNMRSLRRLFDAFEKKTGLLQLLDQSRSAAGVQIFIGGESELLPLDECSLVTAPYSVDGVVVGTLGVVGPTRMAYERVVPIVDVTAKILSSALSQHK”, the “soluble on expression in E. coli” value was “not soluble”.

For “MIDFACKEFKVEDVIKCALNLTKADLNVMKSFLNEPDRWIDTDALSKSLKLDVSTVQRSVKKLHEKEILQRSQQNLDGGGYVYIYKIYSKNQIRNIIQKIVQSWADRLGQELKEWENGGE”, the “soluble on expression in E. coli” value is recorded as “not soluble”.

On to “MKLTWIKCMSKTERISDIDEPRLFEENGVEAHIAAFVMPLLKPLGFRLVRVKLLGLNGLTLQIMVERPDGSMTVEDCETVSRTVSPLLDVQNVIERKYHLEISSPGIDRPLVRKSDFFHWQGHIAKIETKIILEGRRKFRGTLTNITQDGFTLNTDKAAYGESMYISIPFDDIIDAHLVLTDELIRDALKKNKDLSQQFISEDNQKLSKQERNYKN”, for which the “soluble on expression in E. coli” value is “not soluble”.
